Experimental data published in US20040091992A1.

Target: Myc tagged Cdc42HsV12 (constitutively active, expressed in microinjected cells) (UniProt P60953)
Test: cell-based or functional assay

Chain of Myc tagged Cdc42HsV12 (constitutively active, expressed in microinjected cells) (P60953 other isoform, or with tags, fused parts or gaps): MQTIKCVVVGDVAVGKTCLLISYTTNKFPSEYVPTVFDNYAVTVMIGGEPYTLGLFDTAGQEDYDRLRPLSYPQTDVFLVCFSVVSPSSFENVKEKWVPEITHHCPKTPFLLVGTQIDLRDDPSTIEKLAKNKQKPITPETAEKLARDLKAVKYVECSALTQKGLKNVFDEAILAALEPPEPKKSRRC

sustained formation of actin enriched filopodia protrusions in co-injected PAE cells (% of the injected cells): > 70
Substance: HA tagged PAK4 (wild type, expressed in cells from the SRalpha vector) (from UniProt O96013 1-591)
